{"source": "patent US20230416345A1", "about": "“NEW TYPE II COLLAGEN BINDING PROTEINS” (Navigo Proteins GmbH, priority 2020, published 2023)", "molecules": {"B1": {"name": "CID 211519: homodimer of SEQ ID NO: 11 (protein)", "chain": "IAAKFDEAQQAAFYEILHLPNLTEQQRNYFIQWLRDDPSVSPTVLGTAQQLNDSQAPKIAAKFDEAQQAAFYEILHLPNLTEQQRNYFIQWLRDDPSVSPTVLGTAQQLNDSQAPK", "modifications": "Col2 binding protein (dimer) 211519"}}, "key": {"[1]": {"assay": "Soluble expression in Escherichia coli BL21(DE3)", "format": "physicochemical", "settings": "expression in E. coli BL21(DE3)", "description": "Variants with affinity tag were expressed in Escherichia coli BL21(DE3) using a low copy plasmid system under regulation of a T7 promoter. Proteins were produced in soluble form after induction by lactose included in the medium (autoinduction medium). BL21 (DE3) competent cells were transformed with the expression plasmid, spread onto selective agar plates (kanamycin) and incubated overnight at 37° C. Precultures were inoculated from single colony in 3 ml 2×YT medium supplemented with 50 μg/ml kanamycin and cultured for 6 hours at 37° C. at 200 rpm in a conventional orbital shaker in culture tubes. […] Cultures were transferred to an orbital shaker and incubated at 30° C. and 200 rpm. Recombinant protein expression was induced by metabolizing glucose and subsequently allowing lactose to enter the cells. Cells were grown overnight for approx. 17 hours to reach a final OD600 of about 2-4. Before the harvest, the OD600 was measured, samples adjusted to 0.6/OD600 were withdrawn, pelleted and frozen at −20° C. To collect biomass cells were centrifuged at 12000×g for 15 min at 22° C. Pellets were weighed (wet weight). Cells were stored at −20° C. before processing.\n(§1) Proteins with affinity tag were purified by affinity chromatography and size exclusion. After affinity chromatography purification using Strep-Tactin Superflow high capacity cartridges (IBA Lifesciences) a size exclusion chromatography (SEC) was performed using an Äkta system and a Superdex™ 200 HiLoad 16/600 column (Cytiva). Fused variants with Aflibercept were purified via MabSelect SuRe (Cytiva) affinity chromatography followed by a size exclusion chromatography (SEC) using an Äkta system and a Superdex™ 200 HiLoad 16/600 column (Cytiva). All chromatography processing steps were carried out on AKTA systems using matrices from Cytiva. Homogenous species of all purified ligands were obtained; no aggregation was detected. Following SOS-PAGE analysis positive fractions were pooled and their protein concentrations were measured. Further analysis included SOS-PAGE, SE-HPLC and RP-HPLC. Protein concentrations were determined by absorbance measurement at 280 nm using the molar absorbent coefficient. Reversed phase chromatography (RP-HPLC) was performed using a Dionex HPLC system and a PLRP-S (5 μm, 300 Å) column (Agilent). Analytic size exclusion chromatography (SE-HPLC) was performed using a Dionex HPLC system and a Superdex200 increase 5/150 GL (Cytiva). Binding of Collagen II was evaluated by SPR measurements using a Biacore 3000 system. Purified Collagen II was obtained from Chondrex.inc and VEGF-165 was obtained from Millipore. Targets were immobilized on a CM5-Sensor via NHS/EDC chemistry (immobilization level ˜1000 RU). Binding molecules were injected at different concentration and affinity was calculated by langmuir 1:1 binding model."}, "Type III collagen": {"molecular_target": "T1, Type III collagen (Homo sapiens, UniProt P02461)", "T1 sequence (P02461 154-1221 limits assumed)": "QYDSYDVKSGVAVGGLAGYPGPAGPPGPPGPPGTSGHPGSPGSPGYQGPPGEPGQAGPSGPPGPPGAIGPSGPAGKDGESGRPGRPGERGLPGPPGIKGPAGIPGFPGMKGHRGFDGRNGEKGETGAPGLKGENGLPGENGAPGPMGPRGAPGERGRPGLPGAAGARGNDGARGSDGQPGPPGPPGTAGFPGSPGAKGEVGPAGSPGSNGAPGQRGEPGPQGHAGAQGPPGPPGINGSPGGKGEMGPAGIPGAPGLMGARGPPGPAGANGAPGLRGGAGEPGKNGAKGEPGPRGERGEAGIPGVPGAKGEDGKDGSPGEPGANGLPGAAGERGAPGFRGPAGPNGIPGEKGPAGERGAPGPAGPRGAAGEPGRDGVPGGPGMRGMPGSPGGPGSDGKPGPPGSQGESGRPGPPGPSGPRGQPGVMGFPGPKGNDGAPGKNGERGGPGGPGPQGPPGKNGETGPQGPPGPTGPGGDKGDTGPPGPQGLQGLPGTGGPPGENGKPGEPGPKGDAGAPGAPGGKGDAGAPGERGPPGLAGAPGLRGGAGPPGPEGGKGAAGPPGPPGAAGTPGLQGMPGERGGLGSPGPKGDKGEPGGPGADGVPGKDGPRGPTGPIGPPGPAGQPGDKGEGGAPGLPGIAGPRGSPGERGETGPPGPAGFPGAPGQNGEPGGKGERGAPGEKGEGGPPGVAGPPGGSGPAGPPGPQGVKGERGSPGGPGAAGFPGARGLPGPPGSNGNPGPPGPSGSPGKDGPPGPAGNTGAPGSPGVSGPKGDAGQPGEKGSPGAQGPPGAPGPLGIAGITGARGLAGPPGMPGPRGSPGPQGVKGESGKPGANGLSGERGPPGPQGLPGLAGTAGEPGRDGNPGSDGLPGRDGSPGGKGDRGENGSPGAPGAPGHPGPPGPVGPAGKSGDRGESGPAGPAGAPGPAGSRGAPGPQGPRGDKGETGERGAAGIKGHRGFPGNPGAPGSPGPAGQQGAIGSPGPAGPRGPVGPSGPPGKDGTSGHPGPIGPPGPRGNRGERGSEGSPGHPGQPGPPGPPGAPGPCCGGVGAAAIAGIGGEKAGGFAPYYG", "assay": "SPR specificity vs Type III collagen", "format": "binding", "description": "(§2) The purified proteins were immobilized on a CM-5 sensor chip (GE Healthcare) using NHS/EDC after PDEA activation resulting in 110-140 RU with a Biacore 3000 system (GE Healthcare). The chip was equilibrated with SPR running buffer (PBS 0.05% Tween pH 7.3). Upon binding, target analyte was accumulated on the surface increasing the refractive index. This change in the refractive index was measured in real time and plotted as response or resonance units versus time. The analytes were applied to the chip in serial dilutions with a flow rate of 30 μl/min. The association was performed for 120 seconds and the dissociation for 120 seconds. After each run, the chip surface was regenerated with 30 μl regeneration buffer (10 mM glycine pH 2.0) and equilibrated with running buffer.\n(§3) Binding studies were carried out by the use of the BIAcore 3000 (GE Healthcare); data evaluation was operated via the BIAevaluation 3.0 software, provided by the manufacturer, using the Langmuir 1:1 model (RI=0). Evaluated dissociation constants (KD) were standardized against the immobilized protein and indicated. Shown is the change in refractive index measured in real time and plotted as response or resonance unit [RU] versus time [sec]."}, "Type I collagen": {"molecular_target": "Type I collagen (Homo sapiens, UniProt P02452+P08123)", "sequence (P02452 162-1218 limits assumed)": "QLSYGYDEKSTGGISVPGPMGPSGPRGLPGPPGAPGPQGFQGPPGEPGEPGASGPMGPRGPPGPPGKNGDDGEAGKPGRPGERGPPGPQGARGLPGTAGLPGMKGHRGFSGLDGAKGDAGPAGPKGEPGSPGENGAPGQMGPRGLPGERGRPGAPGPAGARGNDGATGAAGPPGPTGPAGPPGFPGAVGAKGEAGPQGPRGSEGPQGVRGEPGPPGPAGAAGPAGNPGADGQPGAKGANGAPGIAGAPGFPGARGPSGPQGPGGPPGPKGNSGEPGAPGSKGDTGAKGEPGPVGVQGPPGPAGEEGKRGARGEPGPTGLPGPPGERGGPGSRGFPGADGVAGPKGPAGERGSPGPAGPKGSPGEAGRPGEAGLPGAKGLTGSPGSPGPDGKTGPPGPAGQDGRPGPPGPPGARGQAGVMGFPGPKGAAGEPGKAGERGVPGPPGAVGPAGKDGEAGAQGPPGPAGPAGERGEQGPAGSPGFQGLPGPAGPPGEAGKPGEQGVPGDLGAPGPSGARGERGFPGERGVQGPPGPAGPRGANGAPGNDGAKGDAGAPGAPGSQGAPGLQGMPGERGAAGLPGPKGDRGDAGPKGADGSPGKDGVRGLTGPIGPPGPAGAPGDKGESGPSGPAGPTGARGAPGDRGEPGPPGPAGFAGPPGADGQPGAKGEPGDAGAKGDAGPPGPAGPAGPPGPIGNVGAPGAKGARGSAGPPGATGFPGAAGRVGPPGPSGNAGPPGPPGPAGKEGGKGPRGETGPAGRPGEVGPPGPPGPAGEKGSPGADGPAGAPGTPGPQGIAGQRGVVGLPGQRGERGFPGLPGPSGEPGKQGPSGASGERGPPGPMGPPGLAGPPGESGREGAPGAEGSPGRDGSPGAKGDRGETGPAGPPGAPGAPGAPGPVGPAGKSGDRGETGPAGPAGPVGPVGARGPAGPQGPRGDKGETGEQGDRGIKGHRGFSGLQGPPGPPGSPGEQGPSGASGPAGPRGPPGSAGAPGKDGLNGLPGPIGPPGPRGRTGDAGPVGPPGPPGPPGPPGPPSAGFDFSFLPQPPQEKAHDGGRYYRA", "sequence (P08123 80-1119 limits assumed)": "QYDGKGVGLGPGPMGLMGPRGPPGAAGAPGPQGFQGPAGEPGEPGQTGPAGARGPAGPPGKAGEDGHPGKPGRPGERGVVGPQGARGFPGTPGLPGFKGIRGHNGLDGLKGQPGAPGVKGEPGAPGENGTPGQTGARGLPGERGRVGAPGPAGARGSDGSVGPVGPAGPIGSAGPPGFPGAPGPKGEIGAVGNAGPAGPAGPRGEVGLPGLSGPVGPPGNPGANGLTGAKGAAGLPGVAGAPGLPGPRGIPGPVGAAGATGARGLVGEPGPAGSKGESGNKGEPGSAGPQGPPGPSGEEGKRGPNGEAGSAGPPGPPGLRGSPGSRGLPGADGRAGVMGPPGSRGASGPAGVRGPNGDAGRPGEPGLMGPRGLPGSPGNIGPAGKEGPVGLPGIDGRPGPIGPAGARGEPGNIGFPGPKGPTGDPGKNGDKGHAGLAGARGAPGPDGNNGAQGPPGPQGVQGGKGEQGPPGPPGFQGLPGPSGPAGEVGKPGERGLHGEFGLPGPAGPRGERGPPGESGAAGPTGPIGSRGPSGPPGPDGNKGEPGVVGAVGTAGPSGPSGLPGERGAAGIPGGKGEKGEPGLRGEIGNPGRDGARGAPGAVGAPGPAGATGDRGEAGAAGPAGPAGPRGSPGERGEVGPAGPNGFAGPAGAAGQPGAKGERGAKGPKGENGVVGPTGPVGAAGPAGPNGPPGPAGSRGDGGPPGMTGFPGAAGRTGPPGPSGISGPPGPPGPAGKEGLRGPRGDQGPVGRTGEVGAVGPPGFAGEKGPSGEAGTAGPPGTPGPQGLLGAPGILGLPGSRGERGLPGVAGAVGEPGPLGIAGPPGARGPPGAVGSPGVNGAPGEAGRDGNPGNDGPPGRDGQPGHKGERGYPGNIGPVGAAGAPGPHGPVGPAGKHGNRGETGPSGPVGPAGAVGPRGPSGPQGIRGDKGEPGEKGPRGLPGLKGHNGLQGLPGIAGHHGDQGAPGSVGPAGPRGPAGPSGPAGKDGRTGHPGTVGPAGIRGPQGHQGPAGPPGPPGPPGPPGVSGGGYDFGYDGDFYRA", "assay": "SPR specificity vs Type I collagen", "format": "binding", "description": "as §2, §3"}, "[2]": {"molecular_target": "T2, porcine collagen type II (p Col II) (Sus scrofa, UniProt A0A287A2Q7)", "T2 construct": "porcine collagen type II (p Col II, prepared from porcine eyes); from tissue; host or cells: porcine eyes", "T2 sequence (A0A287A2Q7 26-1486)": "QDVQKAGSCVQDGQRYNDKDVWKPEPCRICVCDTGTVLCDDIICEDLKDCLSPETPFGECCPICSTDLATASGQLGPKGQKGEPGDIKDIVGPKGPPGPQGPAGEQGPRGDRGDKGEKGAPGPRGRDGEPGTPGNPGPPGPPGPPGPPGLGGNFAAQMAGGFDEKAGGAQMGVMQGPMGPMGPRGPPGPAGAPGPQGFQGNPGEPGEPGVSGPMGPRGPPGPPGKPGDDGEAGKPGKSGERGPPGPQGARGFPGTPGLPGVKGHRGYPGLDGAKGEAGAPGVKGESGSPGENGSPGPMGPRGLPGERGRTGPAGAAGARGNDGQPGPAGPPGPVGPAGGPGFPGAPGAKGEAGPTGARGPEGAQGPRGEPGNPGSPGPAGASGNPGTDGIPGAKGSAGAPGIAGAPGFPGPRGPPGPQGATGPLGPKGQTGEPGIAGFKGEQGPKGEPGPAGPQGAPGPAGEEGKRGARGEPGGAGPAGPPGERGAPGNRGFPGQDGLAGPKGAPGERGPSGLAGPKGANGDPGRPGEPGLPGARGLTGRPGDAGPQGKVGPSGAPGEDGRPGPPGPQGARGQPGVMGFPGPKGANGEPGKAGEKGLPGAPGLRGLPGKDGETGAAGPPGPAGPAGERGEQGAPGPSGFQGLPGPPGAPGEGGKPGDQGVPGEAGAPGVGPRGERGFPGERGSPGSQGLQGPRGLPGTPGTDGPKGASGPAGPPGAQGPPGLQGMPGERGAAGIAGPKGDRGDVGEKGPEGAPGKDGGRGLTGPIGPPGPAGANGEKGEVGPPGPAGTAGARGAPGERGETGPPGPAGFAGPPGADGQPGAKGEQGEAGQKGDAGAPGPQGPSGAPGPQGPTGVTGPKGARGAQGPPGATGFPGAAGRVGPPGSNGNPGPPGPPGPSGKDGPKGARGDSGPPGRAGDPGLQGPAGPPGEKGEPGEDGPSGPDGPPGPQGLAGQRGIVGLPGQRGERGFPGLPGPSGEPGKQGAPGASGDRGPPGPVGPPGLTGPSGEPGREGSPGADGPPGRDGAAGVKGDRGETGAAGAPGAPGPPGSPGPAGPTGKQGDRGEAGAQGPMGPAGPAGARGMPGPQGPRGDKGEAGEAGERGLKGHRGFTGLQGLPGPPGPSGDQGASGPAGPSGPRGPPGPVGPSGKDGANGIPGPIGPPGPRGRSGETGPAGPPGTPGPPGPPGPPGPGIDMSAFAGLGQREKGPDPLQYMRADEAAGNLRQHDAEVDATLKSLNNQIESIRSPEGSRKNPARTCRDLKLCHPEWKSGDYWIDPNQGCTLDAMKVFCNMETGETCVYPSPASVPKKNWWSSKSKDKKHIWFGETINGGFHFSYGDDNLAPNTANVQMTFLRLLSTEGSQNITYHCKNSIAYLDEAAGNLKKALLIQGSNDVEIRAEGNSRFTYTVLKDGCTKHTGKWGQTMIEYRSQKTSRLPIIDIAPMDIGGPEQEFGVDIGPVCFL", "assay": "KD-determination by ELISA vs porcine collagen type II", "format": "binding", "description": "(§4) High binding plates (Greiner, 781061) were immobilized with 2.5 μg/ml recombinant human collagen type II (h Col II, Chondrex, CHX-20051), rabbit collagen type II (rbCol II, prepared from rabbit eyes), porcine collagen type II (p Col II, prepared from porcine eyes), human collagen type I, (h Col I, Sigma, C5483-1MG), human collagen type V (h Col V, Abcam, ab7537), human collagen type III (h Col Ill, Abcam, ab7535) and 67B89 (domain of fibronectin, produced in E. coli) respectively over night at 4° C. ELISA-plates were washed 3 times with PBST (PBS+ 0.1% Tween) and blocked with 3% BSA/0.5% Tween/PBS 2 h at RT. After washing with PBST, dilution series of 1.1 μM to 7×10^−4 nM of dimers (CID 211999, CID 212000), dilution series of 100 nM to 7×10^−6 nM of tetramers (CID 212001 and CID 212704) and dilution series of 10 μM to 2 nM of dimer (CID 212705) were incubated on ELISA-plates 1 h at rt. Plates were washed with PBST and incubated with biotinylated anti-StrepTag-ab (Antikörper-online, ABIN1573895) with a dilution of 1:10.000 for 1 h at rt. The binding was visualized with a-rabbit-IgG-HRP (Sigma, A9169) with a dilution of 1:10.000 and as substrate TMB Plus von KEM EN TEC Diagnostic, Kat-Nr. 4395."}, "[3]": {"molecular_target": "T3, recombinant human collagen type II (h Col II) (Homo sapiens, UniProt P02458)", "T3 construct": "purchased Chondrex CHX-20051", "T3 sequence (P02458 182-1241)": "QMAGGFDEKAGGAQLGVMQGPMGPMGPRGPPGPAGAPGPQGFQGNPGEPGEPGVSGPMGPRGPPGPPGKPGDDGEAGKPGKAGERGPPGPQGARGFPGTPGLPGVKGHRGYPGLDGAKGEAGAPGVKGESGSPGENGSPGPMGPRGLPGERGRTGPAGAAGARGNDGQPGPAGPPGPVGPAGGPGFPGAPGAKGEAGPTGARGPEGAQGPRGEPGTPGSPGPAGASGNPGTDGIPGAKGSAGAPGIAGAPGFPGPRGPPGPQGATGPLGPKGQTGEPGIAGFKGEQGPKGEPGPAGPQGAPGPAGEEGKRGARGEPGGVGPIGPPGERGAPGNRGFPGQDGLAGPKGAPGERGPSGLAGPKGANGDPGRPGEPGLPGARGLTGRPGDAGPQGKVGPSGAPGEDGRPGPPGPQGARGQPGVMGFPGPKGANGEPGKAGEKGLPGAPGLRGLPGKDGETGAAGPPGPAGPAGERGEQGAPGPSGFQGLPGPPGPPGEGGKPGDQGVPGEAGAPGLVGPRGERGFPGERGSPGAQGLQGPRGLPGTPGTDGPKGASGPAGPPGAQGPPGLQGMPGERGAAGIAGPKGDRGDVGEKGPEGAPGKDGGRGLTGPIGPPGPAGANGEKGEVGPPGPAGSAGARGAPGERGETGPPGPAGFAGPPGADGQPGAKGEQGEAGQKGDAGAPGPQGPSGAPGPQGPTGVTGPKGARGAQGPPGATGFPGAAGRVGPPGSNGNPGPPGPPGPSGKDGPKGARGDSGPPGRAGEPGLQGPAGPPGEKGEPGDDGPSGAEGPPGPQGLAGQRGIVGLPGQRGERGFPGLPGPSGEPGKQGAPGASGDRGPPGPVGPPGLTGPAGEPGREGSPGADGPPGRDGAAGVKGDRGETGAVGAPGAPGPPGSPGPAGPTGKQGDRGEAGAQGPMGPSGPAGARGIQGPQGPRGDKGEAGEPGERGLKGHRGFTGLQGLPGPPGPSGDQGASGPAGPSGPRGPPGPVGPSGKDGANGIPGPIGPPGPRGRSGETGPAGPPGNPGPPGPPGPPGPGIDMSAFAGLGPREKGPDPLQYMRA", "assay": "KD-determination by ELISA vs human collagen type II", "format": "binding", "description": "as §4"}, "Type V collagen": {"molecular_target": "Type V collagen (Homo sapiens, UniProt P05997+P20908)", "assay": "SPR specificity vs Type V collagen", "format": "binding", "description": "as §2, §3"}, "[4]": {"molecular_target": "T4, hCol2 (human Type II collagen) (Homo sapiens, UniProt P02458)", "T4 construct": "purchased Chondrex", "T4 sequence (P02458 182-1241)": "as above", "assay": "Binding analysis by SPR (Biacore 3000) vs human type II collagen", "description": "as §1, §2, §3"}}, "data": [{"molecule": "B1", "values": [{"measurement": "Solubility Soluble expression", "setting": "[1]", "value": 95, "unit": "%"}, {"measurement": "Binding to Type III collagen (SPR)", "setting": "Type III collagen", "value": "no binding"}, {"measurement": "Binding to Type I collagen (SPR)", "setting": "Type I collagen", "value": "no binding"}, {"measurement": "specific binding vs porcine type II collagen (ELISA)", "setting": "[2]", "value": 0.7, "unit": "µM"}, {"measurement": "binding affinity (KD) to human type II collagen (ELISA)", "setting": "[3]", "value": 700, "unit": "nM"}, {"measurement": "Binding to Type V collagen (SPR)", "setting": "Type V collagen", "value": "no binding"}, {"measurement": "Binding to type II collagen via SPR", "setting": "[4]; FIG. 3, FIG. 4A", "value": "binding to Type II collagen with transient binding signal"}, {"measurement": "Affinity [SPR] vs hCol2", "setting": "[4]; dimers or tetramers, Langmuir 1:1 model", "value": 784, "unit": "nM"}, {"measurement": "Kd", "setting": "[4]; multi-cycle Biacore measurement, FIG. 4B, read-out: KD for Type II collagen, equilibrium fit of amplitudes", "value": 780, "unit": "nM"}]}]}
